Measured values reported in US20240197828A1, “Chimeric molecule to treat sepsis and other inflammatory conditions” (THE FEINSTEIN INSTITUTES FOR MEDICAL RESEARCH, priority 2022, published 2024).

Columns and labels:
WT mice = experiment: Sterile eCIRP-induced inflammation by rmCIRP injection in mice; format: in vivo, mouse; conditions: 4 hours, vs eCIRP alone
Protocol: FIG. 5A-5B. eCIRP-induced inflammation is attenuated by MOP3. WT mice were treated according to respective groups: PBS (volume equivalent), rmCIRP (5 mg/kg), or MOP3 (10 μg/kg) co-incubated with rmCIRP (5 mg/kg) for 30 mins prior to r.o. injection. After 4 hours, serum was measured for IL-6 (A) and TNFα (B) levels by ELISA. All experiments were performed 3 times, and all data were used for analysis (N=7-10). Data are expressed as mean±SEM and compared by one-way ANOVA and SNK test. *p<0.05 vs. PBS, #p<0.05 vs. eCIRP.
Adult (8-12 weeks) male, C57BL/6 wild-type (WT) mice (20-30 g) were purchased from Charles River Laboratories. MFG-E8 knockout mice (MFG-E8^−/−) were originally obtained from Dr. Shigekazu Nagata, Osaka University of Japan, and bred following our Institutional Animal Care and Use Committee (IACUC) policies. Age-matched, healthy mice were used in all experiments. Animals were randomly assigned to sham, vehicle, or treatment groups. Concerted effort was made to ensure that a limited number of animals were used in each experiment. […] For the design of in vivo models, sample size calculation was driven by variability, effect size, significance level and power as determined through performance of early feasibility and optimization pilot studies. […]
The mouse macrophage cell culture supernatants were analyzed for cytokine levels using ELISA kits (BD Biosciences, CA). […] TNF-α and IL-6 levels were measured in cell supernatants by ELISA in accordance with respective manufacturers' instructions (BD Biosciences, CA). Blood was collected, centrifuged at 4,000 RPM for 10 minutes, and sera was separated and analyzed for cytokine levels using ELISA kits (BD Biosciences, CA). TNF-α and IL-6 levels in the serum were measured by ELISA in accordance with respective manufacturers' instructions.
Serum levels of aspartate transaminase (AST), alanine transaminase (ALT), and lactate dehydrogenase (LDH) were determined using calorimetric enzymatic assays (Pointe Scientific, Canton, MI) according to the manufacturer's instructions.

RAW264.7 cells = experiment: eCIRP-induced cytokine release in RAW264.7 cells (ELISA of supernatants); format: cell-based, mouse; conditions: RAW264.7, rmCIRP 1 μg/mL, 4 hours
Protocol: FIG. 2. Effects of MOP peptides on TNFα levels. RAW264.7 macrophages were cultured and treated with either volume-equivalent PBS, recombinant murine (rm) CIRP (eCIRP; 1 μg/mL), or rmCIRP with each respective peptide (10 μg/mL). After 4 hours, cell supernatants were assessed for TNFα levels by ELISA. Experiments were performed 3 times, and all data were used for analysis. Data are expressed as mean±SEM and compared by one-way ANOVA and SNK test. *p<0.05 vs. PBS, #p<0.05 vs. eCIRP.
FIG. 4. eCIRP-induced inflammation is attenuated by MOP3. RAW264.7 cells were treated according to respective groups: PBS (volume equivalent), rmCIRP (1 μg/mL), or rmCIRP with MOP3 at increasing doses. After 4 hours, cell supernatants were analyzed for TNFα levels by ELISA. […] Data are expressed as mean #SEM and compared by one-way ANOVA and SNK test. *p<0.05 vs. PBS, #p<0.05 vs. eCIRP.
Computational modeling was used to determine the likely domain of MFG-E8's binding to eCIRP. […] Binding of MOP3 to CIRP was quantified using Surface Plasmon Resonance (SPR) analysis. […] After 1 h, cells were fixed and analyzed for intracellular FITC-rmCIRP by flow cytometry. […] After 4 h, cell culture supernatants were analyzed for inflammatory cytokine, TNFα. […]
The mouse macrophage cell culture supernatants were analyzed for cytokine levels using ELISA kits (BD Biosciences, CA). […]

[1] = rmCIRP 5 mg/kg co-incubated 30 min with test substance, r.o. injection

B1: milk fat globule-epidermal growth factor—factor VIII (protein, listed as Mus musculus)
chain: MQVSRVLAALCGMLLCASGLFAASGDFCDSSLCLNGGTCLTGQDNDIYCLCPEGFTGLVCNETERGPCSPNPCYNDAKCLVTLDTQRGDIFTEYICQCPVGYSGIHCETETNYYNLDGEYMFTTAVPNTAVPTPAPTPDLSNNLASRCSTQLGMEGGAIADSQISASSVYMGFMGLQRWGPELARLYRTGIVNAWTASNYDSKPWIQVNLLRKMRVSGVMTQGASRAGRAEYLKTFKVAYSLDGRKFEFIQDESGGDKEFLGNLDNNSLKVNMFNPTLEAQYIKLYPVSCHRGCTLRFELLGCELHGCSEPLGLKNNTIPDSQMSASSSYKTWNLRAFGWYPHLGRLDNQGKINAWTAQSNSAKEWLQVDLGTQRQVTGIITQGARDFGHIQYVASYKVAHSDDGVQWTVYEEQGSSKVFQGNLDNNSHKKNIFEKPFMARYVRVLPVSWHNRITLRLELLGC
For B1, the “serum IL-6 levels” value (WT mice; [1]) was “significantly reduced”, the “serum TNFα levels” value (WT mice; [1]) was “significantly reduced” and the “LDH levels (tissue injury)” value (WT mice; rmCIRP 5 mg/kg with rmMFG-E8 40 μg/kg) was “significantly reduced”. For the same molecule, the “IL-6 levels in cell supernatants” value (RAW264.7 cells; vs eCIRP alone) was “attenuated these levels in a dose-dependent manner” and the “TNFα levels in cell supernatants” value (RAW264.7 cells; vs rmCIRP alone) was “attenuated these levels in a dose-dependent manner”.
